The text below walks through data of patent US20110033476A1 (published 2011).

Assay [1] addresses M2 protein of influenza A/Puerto Rico/8/34 (H1N1) (Influenza A virus A/Puerto Rico/8/34 (H1N1)) (UniProt P06821). The assay can be described thus: ELISA on purified A/Puerto Rico/8/34 virus coated on wells (FIG. 14a).
For assay [2] the target is unchanged. The assay can be described thus: surface plasmon resonance, Fab binding to virus.
Assay [3] has as its target T1, M2 protein of influenza A/Puerto Rico/8/34 (H1N1) (Influenza A virus A/Puerto Rico/8/34 …, UniProt P06821 1-97).
T1 construct: whole, on cells
The assay is described as follows: ELISA on influenza virus, crude supernatant (FIG. 9).

M2 protein of influenza A/Puerto Rico/8/34 (H1N1) (Influenza A virus A/Puerto Rico/8/34 (H1N1)), sequence (P06821 whole entry): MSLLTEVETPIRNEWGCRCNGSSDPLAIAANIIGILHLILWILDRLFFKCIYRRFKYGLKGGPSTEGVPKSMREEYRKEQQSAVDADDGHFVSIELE
T1 sequence (P06821 whole entry): as above

Molecule TCN-031 (antibody) gave an EC50 in assay [1] of 0.1 µg/mL.

On to TCN-031 Fab, for which, in assay [2], the Kd came to 14 nM, the koff was determined as 0.014 s⁻¹ and the on-rate constant (kon) is 1e+06 M⁻¹ s⁻¹.

As to TCN-032 (antibody), the EC50 in assay [1] worked out at 0.1 µg/mL.

In assay [2], TCN-032 Fab returned a Kd of 3.2 nM, a koff of 0.0023 s⁻¹ and a kon of 740000 M⁻¹ s⁻¹.

B1: 23K12 (antibody, V domains shown)
VH: EVQLVESGGGLVQPGGSLRISCAASGFTVSSNYMSWVRQAPGKGLEWVSVIYSGGSTYYADSVKGRFSFSRDNSKNTVFLQMNSLRAEDTAVYYCARCLSRMRGYGLDVWGQGTTVTVS
VL: DIQMTQSPSSLSASVGDRVTITCRTSQSISSYLNWYQQKPGKAPKLLIYAASSLQSGVPSRFSGSGSGTDFTLTISGLQPEDFATYYCQQSYSMPAFGQGTKLEIK
On to B1, for which the binding result in assay [3] is reported as “binds”.
